Experimental data as given in publication PMC11076521, “Structural basis for the intracellular regulation of ferritin degradation” (Nature Communications, 2024).

B1: NCOA4 ferritin-binding fragment (amino acids 383-522), His-tagged (domain or fragment, UniProt Q13772 383-522, looked up)
chain: SMVTEDWLVQNHQDPCKVEEVCRANEPCTSFAECVCDENCEKEALYKWLLKKEGKDKNGMPVEPKPEPEKHKDSLNMWLCPRKEVIEQTKAPKAMTPSRIADSFQVIKNSPLSEWLIRPPYKEGSPKEVPGTEDRAGKQK
notes: No tag cleavage is described; also called NCOA4^FB; NCOA4-383-522; source: E. coli T7 Lys, purified (HisTrap, PD10 desalting)
B2: C-terminally HA-FLAG-tagged NCOA4 (natural protein, UniProt Q13772 1-614, looked up)
chain: MNTFQDQSGSSSNREPLLRCSDARRDLELAIGGVLRAEQQIKDNLREVKAQIHSCISRHLECLRSREVWLYEQVDLIYQLKEETLQQQAQQLYSLLGQFNCLTHQLECTQNKDLANQVSVCLERLGSLTLKPEDSTVLLFEADTITLRQTITTFGSLKTIQIPEHLMAHASSANIGPFLEKRGCISMPEQKSASGIVAVPFSEWLLGSKPASGYQAPYIPSTDPQDWLTQKQTLENSQTSSRACNFFNNVGGNLKGLENWLLKSEKSSYQKCNSHSTTSSFSIEMEKVGDQELPDQDEMDLSDWLVTPQESHKLRKPENGSRETSEKFKLLFQSYNVNDWLVKTDSCTNCQGNQPKGVEIENLGNLKCLNDHLEAKKPLSTPSMVTEDWLVQNHQDPCKVEEVCRANEPCTSFAECVCDENCEKEALYKWLLKKEGKDKNGMPVEPKPEPEKHKDSLNMWLCPRKEVIEQTKAPKAMTPSRIADSFQVIKNSPLSEWLIRPPYKEGSPKEVPGTEDRAGKQKFKSPMNTSWCSFNTADWVLPGKKMGNLSQLSSGEDKWLLRKKAQEVLLNSPLQEEHNFPPDHYGLPAVCDLFACMQLKVDKEKWLYRTPLQM
notes: the discussion calls the NCOA4 of the cellular studies full-length; also called full-length NCOA4; source: HEK293T-FTH1 KO, transiently transfected, in lysate; HeLa-FTH1 KO, in lysate; not shown: HA, C-terminal, kept; FLAG, C-terminal, kept

Tests used:
[1] = target: T1, FTL S19R, Q26Y, A86D, K106N (L2H mutant, recombinant) (UniProt P02792 1-175, S19R | Q26Y | A86D | K106N); assay: ITC; 16 injections of 3 uL NCOA4 into the cell containing ferritin; 25.00 C; 100 mM MOPS, 100 mM NaCl, pH 7.4; one class of independent binding sites; settings: both partners purified
T1 construct: ferritin light chain (FTL) with four residues of FTH1 brought into the cleft; mutant ordered from Twist Bioscience in pET-29b(+); also called FTL mutant L2H; source: E. coli BL21 (DE3), purified (heat treatment, HiTrap Q HP, ammonium sulfate)

[2] = target: T2, human FTH1 wild type (recombinant ferritin nanocage) (human, UniProt P02794 1-183); assay: as above; settings: both partners purified
T2 construct: ferritin heavy chain (FTH1), human; plasmid from Addgene #122652; Homopolymer cage; also called FTH1-WT; WT-FTH1; source: E. coli BL21 (DE3), purified (heat treatment, HiTrap Q HP, ammonium sulfate); copies: 24

FTH1-S114D (recombinant) = target: T3, FTH1-S114D (recombinant) (human, UniProt P02794 1-183, S114D); assay: as above; settings: both partners purified
T3 construct: ferritin heavy chain (FTH1), human, phosphomimetic mutant ordered from Twist Bioscience in pET-29b(+); source: E. coli BL21 (DE3), purified (heat treatment, HiTrap Q HP, ammonium sulfate)

[3] = target: T4, N-terminally MYC-tagged FTH1-N22A (human, UniProt P02794 1-183, N22A); assay: co-IP; HEK293T-FTH1 KO cells, transient expression; anti-MYC agarose IP of MYC-FTH1, immunoblot; 50 mM Tris-HCl pH 7.5, 150 mM NaCl, 0.5% Nonidet P40, 1 mM DTT; quantified relative to FTH1-WT, normalized to immunoprecipitated FTH1; settings: partners not purified
T4 construct: ferritin heavy chain (FTH1), NM_002032.3, mutant synthesized by Twist Bioscience in pTwist EF1 Alpha; source: HEK293T-FTH1 KO, transiently transfected, in lysate; not shown: MYC, N-terminal, kept

[4] = target: T5, N-terminally MYC-tagged FTH1-A19Y (human, UniProt P02794 1-183, A19Y); assay: as above; settings: partners not purified
T5 construct: ferritin heavy chain (FTH1), NM_002032.3, mutant synthesized by Twist Bioscience in pTwist EF1 Alpha; source: HEK293T-FTH1 KO, transiently transfected, in lysate; not shown: MYC, N-terminal, kept

[5] = target: T6, N-terminally MYC-tagged FTH1-R23A (human, UniProt P02794 1-183, R23A); assay: as above; settings: partners not purified
T6 construct: ferritin heavy chain (FTH1), NM_002032.3, mutant synthesized by Twist Bioscience in pTwist EF1 Alpha; source: HEK293T-FTH1 KO, transiently transfected, in lysate; not shown: MYC, N-terminal, kept

[6] = target: T7, N-terminally MYC-tagged FTH1-S114E (human, UniProt P02794 1-183, S114E); assay: as above; settings: partners not purified
T7 construct: ferritin heavy chain (FTH1), NM_002032.3, phosphomimetic mutant synthesized by Twist Bioscience in pTwist EF1 Alpha; source: HEK293T-FTH1 KO, transiently transfected, in lysate; not shown: MYC, N-terminal, kept

[7] = target: T8, N-terminally MYC-tagged FTH1-S114D (human, UniProt P02794 1-183, S114D); assay: as above; settings: partners not purified
T8 construct: ferritin heavy chain (FTH1), NM_002032.3, phosphomimetic mutant synthesized by Twist Bioscience in pTwist EF1 Alpha; source: HEK293T-FTH1 KO, transiently transfected, in lysate; not shown: MYC, N-terminal, kept

[8] = target: T9, N-terminally MYC-tagged FTH1-R23L (human, UniProt P02794 1-183, R23L); assay: as above; settings: partners not purified
T9 construct: ferritin heavy chain (FTH1), NM_002032.3, mutant synthesized by Twist Bioscience in pTwist EF1 Alpha; source: HEK293T-FTH1 KO, transiently transfected, in lysate; not shown: MYC, N-terminal, kept

[9] = target: T10, N-terminally MYC-tagged FTH1-R23I (human, UniProt P02794 1-183, R23I); assay: as above; settings: partners not purified
T10 construct: ferritin heavy chain (FTH1), NM_002032.3, mutant synthesized by Twist Bioscience in pTwist EF1 Alpha; source: HEK293T-FTH1 KO, transiently transfected, in lysate; not shown: MYC, N-terminal, kept
T10 sequence (P02794 whole entry R23I): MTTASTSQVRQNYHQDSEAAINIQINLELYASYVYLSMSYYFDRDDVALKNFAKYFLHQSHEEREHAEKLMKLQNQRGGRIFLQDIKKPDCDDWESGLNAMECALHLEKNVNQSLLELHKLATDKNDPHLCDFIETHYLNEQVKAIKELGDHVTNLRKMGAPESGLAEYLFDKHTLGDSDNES

T1 sequence (P02792 whole entry S19R/Q26Y/A86D/K106N): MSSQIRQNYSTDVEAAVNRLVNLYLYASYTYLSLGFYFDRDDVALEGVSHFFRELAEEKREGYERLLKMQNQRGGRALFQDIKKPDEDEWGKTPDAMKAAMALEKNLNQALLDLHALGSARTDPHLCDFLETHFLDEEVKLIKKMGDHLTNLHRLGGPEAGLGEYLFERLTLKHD
T2 sequence (P02794 whole entry): as the sequence (P02794 whole entry R23I) above, with I23R counted along it
T3 sequence (P02794 whole entry S114D): as the sequence (P02794 whole entry R23I) above, with I23R, S114D counted along it
T9 sequence (P02794 whole entry R23L): as the sequence (P02794 whole entry R23I) above, with I23L counted along it
T4 sequence (P02794 whole entry N22A): as the sequence (P02794 whole entry R23I) above, with N22A, I23R counted along it
T7 sequence (P02794 whole entry S114E): as the sequence (P02794 whole entry R23I) above, with I23R, S114E counted along it
T6 sequence (P02794 whole entry R23A): as the sequence (P02794 whole entry R23I) above, with I23A counted along it
T5 sequence (P02794 whole entry A19Y): as the sequence (P02794 whole entry R23I) above, with A19Y, I23R counted along it
T8 sequence (P02794 whole entry S114D): as the sequence (P02794 whole entry R23I) above, with I23R, S114D counted along it

Row | Binder | Kd [1] [µM] | dH [1] [kcal/mol] | stoichiometry N [1] | Kd [2] [µM] | dH [2] [kcal/mol] | stoichiometry N [2] | Kd (FTH1-S114D (recombinant)) [µM] | dH (FTH1-S114D (recombinant)) [kcal/mol] | stoichiometry N (FTH1-S114D (recombinant)) | relative interaction by immunoprecipitation (% of FTH1-WT) [3] [%] | relative interaction by immunoprecipitation (% of FTH1-WT) [4] [%] | relative interaction by immunoprecipitation (% of FTH1-WT) [5] [%] | relative interaction by immunoprecipitation (% of FTH1-WT) [6] [%] | relative interaction by immunoprecipitation (% of FTH1-WT) [7] [%] | relative interaction by immunoprecipitation (% of FTH1-WT) [8] [%] | relative interaction by immunoprecipitation (% of FTH1-WT) [9] [%]
1 | B1 | 5.6 | -5.26 | 1.9 | 2.4 | -5.5 | 2.5 | 3.5 | -4.66 | 3 | – | – | – | – | – | – | –
2 | B2 | – | – | – | – | – | – | – | – | – | 3.72 | 8.86 | 5.35 | 113 | 111 | 86 | 13
